Tests used:
[1] = target: T1, AnaCTDH (CTDH, C-terminal domain homolog of OCP, clade 2) (Nostoc sp. PCC 7120 = FACHB-418, UniProt A0ACD6B996, C103F); assay: absorbance spectra after uptake from canthaxanthin-containing E. coli membranes; type: binding; conditions: 12 µM apo-dimer, membranes with 48 µM canthaxanthin, 33 °C, 1 h, darkness
T1 construct: gene all4940; C-terminal His-tag (plasmid pCDF-CTDHAna-C103F), expressed in E. coli; dimer about 34 kDa; the wild type was crystallised in apo form
T1 sequence (A0ACD6B996 entry or part of it C103F): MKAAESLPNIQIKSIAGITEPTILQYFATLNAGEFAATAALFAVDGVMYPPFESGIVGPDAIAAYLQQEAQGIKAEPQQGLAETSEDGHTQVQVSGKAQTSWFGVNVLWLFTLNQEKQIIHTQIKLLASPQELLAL

[2] = target: T2, AnaCTDH (CTDH, C-terminal domain homolog of OCP, clade 2) (Nostoc sp. PCC 7120 = FACHB-418, UniProt A0ACD6B996, C103F/DEL126-136); assay: as above; type: binding; conditions: 12 µM apo-dimer, membranes with 48 µM canthaxanthin, 33 °C, 1 h, darkness; C-terminal tail deleted
T2 construct: gene all4940; C-terminal His-tag (plasmid pCDF-CTDHAna-C103F), expressed in E. coli; dimer about 34 kDa; the wild type was crystallised in apo form
T2 sequence (A0ACD6B996 entry or part of it C103F/DEL126-136): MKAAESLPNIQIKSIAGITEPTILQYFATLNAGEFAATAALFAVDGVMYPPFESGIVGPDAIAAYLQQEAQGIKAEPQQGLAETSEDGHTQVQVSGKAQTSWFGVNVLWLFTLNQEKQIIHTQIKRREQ

[3] = target: Anabaena (Nostoc) PCC 7120 apo-CTDH (carotenoid-free C-terminal domain homolog of Orange Carotenoid Protein) (Anabaena (Nostoc) PCC 7120); assay: native gel or EMSA; purified apo-AnaCTDH on 15% native polyacrylamide gel, pH 8 (25 mM Tris-HCl, 192 mM glycine), non-reducing
[4] = target: Anabaena (Nostoc) PCC 7120 apo-CTDH (carotenoid-free C-terminal domain homolog of Orange Carotenoid Protein) (Anabaena (Nostoc) PCC 7120); assay: SEC; apo-AnaCTDH treated with 2 M urea overnight, preparative column, 40 mM Tris-HCl pH 8 with 2 M urea
[5] = target: the molecule itself; assay: SAXS; batch mode, 270 µM per monomer, 20 mM Tris-HCl pH 7.6, 150 mM NaCl, 0.1 mM EDTA, 2 mM dithiothreitol, 3% glycerol

CC1=C(/C=C/C(C)=C/C=C/C(C)=C/C=C/C=C(C)/C=C/C=C(C)/C=C/C2=C(C)C(=O)CCC2(C)C)C(C)(C)CCC1=O [canthaxanthin]
% holo-protein formed [1]: 100% | % holo-protein formed [2]: 20(±5) %

Anabaena (Nostoc) PCC 7120 apo-CTDH (carotenoid-free C-terminal domain homolog of Orange Carotenoid Protein) (natural protein)
stoichiometry N [3]: 2 | stoichiometry N [4]: 2

B1: Apo-CTD from Synechocystis OCP (residues 165-317) (domain or fragment, Synechocystis 6803, UniProt P74102 165-317, looked up)
chain: AGKDGKRIAEPVVPPQDTASRTKVSIEGVTNATVLNYMDNLNANDFDTLIELFTSDGALQPPFQRPIVGKENVLRFFREECQNLKLIPERGVTEPAEDGFTQIKVTGKVQTPWFGGNVGMNIAWRFLLNPEGKIFFVAIDLLASPKELLNFAR
notes: C-terminal domain of the Orange Carotenoid Protein of Synechocystis 6803, residues 165-317 (of 317); 18.7 kDa construct with an uncleavable N-terminal hexahistidine tag; carotenoid-free; The SAXS modelling counts 23 flexible N-terminal residues (tag and linker included) and 12 C-terminal ones; also called apo-OCP-CTD; CTD-OCP; not shown: His6, N-terminal, kept
stoichiometry N [5]: 2

Source: paper PMC6123778, “Structural rearrangements in the C-terminal domain homolog of Orange Carotenoid Protein are crucial for carotenoid transfer” (Communications Biology, 2018)
